Measured values reported in PMC4052767 (Genes & Development, 2014).
Positions count from the first letter of the chain named. Entries after “also recorded” stand apart in the source; their conditions may differ.

Experiments:
histone H4 (H4K5, H4K12) [1] = settings: cited from earlier work; for enhancement of enzymatic activity of Hat1p: by facilitating H4 association with Hat1p; for enhancement of enzymatic activity of Hat1p / acetylation site specificity on H4 (literature): ref Parthun et al. 1996; for acetylation site specificity on H4 (literature): in vitro, complex purified from yeast extracts or recombinant yeast Hat1p
hat1Δ yeast = experiment: DNA damage sensitivity assay; format: cell-based; settings: synthetic medium in the absence or presence of methyl methane sulfonate (MMS); H3K9,14R allele as sole H3; Supplemental Fig. S4
[2] = test system: histone H4 in nucleosomes; settings: ref Kleff et al. 1995; Parthun et al. 1996; cited from earlier work
histone H4 (H4K5, H4K12) [3] = settings: no ref printed in the sentence; cited from earlier work

B1: RbAp46: human homolog of Hat2p, retinoblastoma-binding protein (protein, UniProt Q16576 2-425, looked up)
Histone-binding protein RBBP7: ASKEMFEDTVEERVINEEYKIWKKNTPFLYDLVMTHALQWPSLTVQWLPEVTKPEGKDYALHWLVLGTHTSDEQNHLVVARVHIPNDDAQFDASHCDSDKGEFGGFGSVTGKIECEIKINHEGEVNRARYMPQNPHIIATKTPSSDVLVFDYTKHPAKPDPSGECNPDLRLRGHQKEGYGLSWNSNLSGHLLSASDDHTVCLWDINAGPKEGKIVDAKAIFTGHSAVVEDVAWHLLHESLFGSVADDQKLMIWDTRSNTTSKPSHLVDAHTAEVNCLSFNPYSEFILATGSADKTVALWDLRNLKLKLHTFESHKDEIFQVHWSPHNETILASSGTDRRLNVWDLSKIGEEQSAEDAEDGPPELLFIHGGHTAKISDFSWNPNEPWVICSVSEDNIMQIWQMAENIYNDEESDVTTSELEGQGS
enhancement of enzymatic activity of Hat1p (histone H4 (H4K5, H4K12) [1]): significantly enhanced the enzymatic activity of Hat1p

B2: Hat2p: WD40 repeat protein, binding partner of Hat1p (protein)
chain: MENQEKPLSVDEEYDLWKSNVPLMYDFVSETRLTWPSLTVQWLPTPVQELDGGFIKQELIIGTHTSGEEENYLKFAEINLPKEILSNEDPQEEAGEEYQSSLPAPRSNIRITAKYEHEEEITRARYMPQDPNIVATINGQGTVFLYSRSEGLQSTLKFHKDNGYALSFSTLVKGRLLSGSDDHTVALWEVGSGGDPTKPVRTWNDLHSDIINDNKWHNFNKDLFGTVSEDSLLKINDVRANNTTIDTVKCPQPFNTLAFSHHSSNLLAAAGMDSYVYLYDLRNMKEPLHHMSGHEDAVNNLEFSTHVDGVVVSSGSDNRLMMWDLKQIGAEQTPDDAEDGVPELIMVHAGHRSSVNDFDLNPQIPWLVASAEEENILQVWKCSHSLPIVGGPPKVNKDIIS
modifications: left off: 6xHis, N-terminal, kept
enhancement of enzymatic activity of Hat1p (histone H4 (H4K5, H4K12) [1]): significantly enhanced the enzymatic activity of Hat1p

B3: W197E (protein)
chain: MSANDFKPETWTSSANEALRVSIVGENAVQFSPLFTYPIYGDSEKIYGYKDLIIHLAFDSVTFKPYVNVKYSAKLGDDNIVDVEKKLLSFLPKDDVIVRDEAKWVDCFAEERKTHNLSDVFEKVSEYSLNGEEFVVYKSSLVDDFARRMHRRVQIFSLLFIEAANYIDETDPSWQIYWLLNKKTKELIGFVTTYKYEHYLGAKSFDEDIDKKFRAKISQFLIFPPYQNKGHGSCLYEAIIQSWLEDKSITEITVEDPNEAFDDLRDRNDIQRLRKLGYDAVFQKHSDLSDEFLESSRKSLKLEERQFNRLVEMLLLLNNS
modifications: left off: GST (from the vector pGEX6p-1), end not stated, cleaved
complementation of DNA damage sensitivity in hat1Δ yeast (hat1Δ yeast): able to complement the DNA damage sensitivity in the hat1Δ yeast

B4: Hat1p: yeast Hat1p (1–320), type B histone acetyltransferase (protein)
chain: B3 chain with E197W
acetylation site specificity on H4 (literature) (histone H4 (H4K5, H4K12) [1]): not only able to acetylate H4K12 but also exhibited low activity to H4K5; also recorded: acetylated both H4K5 and H4K12 in vitro | acetylation of H4K5 and H4K12 (recombinant yeast Hat1, literature) (histone H4 (H4K5, H4K12) [1]; recombinant yeast Hat1, no ref printed in the sentence): can acetylate both H4K5 and H4K12 | acetylation of histone H4 in nucleosomes [2]: cannot acetylate histone H4 in nucleosomes

B5: Hat1p/Hat2p complex: yeast histone acetyltransferase complex Hat1p/Hat2p (protein)
chain 1: B3 chain with E197W
chain 2: B2 chain
modifications: left off: 6xHis, N-terminal, state not stated
acetylation site specificity on H4 (literature) (histone H4 (H4K5, H4K12) [1]): specifically acetylated H4K12 residue; also recorded: highly specific for H4K12

B6: recombinant human: recombinant human Hat1 (protein, UniProt O14929 2-419, looked up)
Histone acetyltransferase …: AGFGAMEKFLVEYKSAVEKKLAEYKCNTNTAIELKLVRFPEDLENDIRTFFPEYTHQLFGDDETAFGYKGLKILLYYIAGSLSTMFRVEYASKVDENFDCVEADDVEGKIRQIIPPGFCTNTNDFLSLLEKEVDFKPFGTLLHTYSVLSPTGGENFTFQIYKADMTCRGFREYHERLQTFLMWFIETASFIDVDDERWHYFLVFEKYNKDGATLFATVGYMTVYNYYVYPDKTRPRVSQMLILTPFQGQGHGAQLLETVHRYYTEFPTVLDITAEDPSKSYVKLRDFVLVKLCQDLPCFSREKLMQGFNEDMVIEAQQKFKINKQHARRVYEILRLLVTDMSDAEQYRSYRLDIKRRLISPYKKKQRDLAKMRKCLRPEELTNQMNQIEISMQHEQLEESFQELVEDYRRVIERLAQE
acetylation of H4K5 and H4K12 (recombinant human Hat1, literature) (histone H4 (H4K5, H4K12) [3]): can acetylate both H4K5 and H4K12
